This passage reports ELISA_avg results from patent US20250026849A1 (ARCELLX, published 2025).

Substitutions are numbered along the chain they refer to.

T1: CD123 (Homo sapiens (Human), UniProt P26951 19-305, limits assumed)
T1 sequence: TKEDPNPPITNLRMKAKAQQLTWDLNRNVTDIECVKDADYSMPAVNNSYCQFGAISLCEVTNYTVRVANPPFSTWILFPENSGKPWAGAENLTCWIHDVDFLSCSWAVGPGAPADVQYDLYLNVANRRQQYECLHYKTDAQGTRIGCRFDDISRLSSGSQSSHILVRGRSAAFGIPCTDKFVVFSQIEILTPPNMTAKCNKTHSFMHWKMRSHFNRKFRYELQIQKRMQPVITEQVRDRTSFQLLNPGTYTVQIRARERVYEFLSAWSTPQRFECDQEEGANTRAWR

T2: CD123 (Homo sapiens (Human), UniProt P26951 19-305, limits assumed)
T2 construct: also called CD123-Signal
T2 sequence: T1 sequence

B1: D-domain SEQ ID NO: 343 (designed binder)
chain: MGSWFEFWDRLEAIDDRLFALGGSEAELAAFEKEIAAFESELQAYKGKGNPEVESLRYNAAEIRKELQAYRHN
B2: D-domain SEQ ID NO: 344 (designed binder)
chain: B1 chain with F5H, D9S, E12D, S55Y, Y58G, N59A, E62D, K65A
B3: D-domain SEQ ID NO: 340 (designed binder)
chain: MGSWIEFNMRVLAIEDRLWALGGSEAELAAFEKEIAAFESELQAYKGKGNPEVESLRYEACLDPWSSAAYRHN
B4: D-domain SEQ ID NO: 341 (designed binder)
chain: MGSWIEFHERLWAIEDRLWALGGSEAELAAFEKEIAAFESELQAYKGKGNPEVESLREMAASIRHGLQAYRHN
B5: D-domain SEQ ID NO: 342 (designed binder)
chain: B4 chain with I5F, H8Y, E15D, S55W, M59E, H65S, G66S
B6: D domain SEQ ID NO: 763 (designed binder)
chain: MGSWWEFEDRLMAIYDRLYALGGSEAELAAFEKEIAAFESELQAYKGKGNPEVEYLRAEAALIRETLQAYRHN
B7: D domain SEQ ID NO: 730 (designed binder)
chain: MGSWVEFWHRLDAIKARLNALGGSEAELAAFEKEIAAFESELQAYKGKGNPEVEDLRWYAADFRLILQAYRHN
B8: D domain SEQ ID NO: 769 (designed binder)
chain: B1 chain with W8V, D15E, D16M, S55L, Y58W, N59R, E62M, K65Y, E66D
B9: D domain SEQ ID NO: 764 (designed binder)
chain: B6 chain with W5F, M12Y, Y15E, A58W, E59G, L62T, E65D, T66E
B10: D domain SEQ ID NO: 733 (designed binder)
chain: MGSWNEFYDRLSAIYFRLQALGGSEAELAAFEKEIAAFESELQAYKGKGNPEVEHLRWYAADIRMILQAYRHN
B11: D domain SEQ ID NO: 731 (designed binder)
chain: B10 chain with N5Y, D9N, F16A, H55D, M65Y, I66M
B12: D domain SEQ ID NO: 737 (designed binder)
chain: B10 chain with N5K, Y8D, D9N, S12Y, Y15E, F16D, Q19R
B13: D domain SEQ ID NO: 734 (designed binder)
chain: B10 chain with S24F
B14: D domain SEQ ID NO: 732 (designed binder)
chain: B10 chain with N5Y, F16A, H55D, M65Y, I66M
B15: D domain SEQ ID NO: 735 (designed binder)
chain: B10 chain with N5E, S12G, Y15F, F16A, Q19H, H55D
B16: D domain SEQ ID NO: 736 (designed binder)
chain: B10 chain with N5V, S12H, Q19L, H55D, M65L, I66V
B17: HER2-binding D domain SEQ ID NO: 835 (designed binder)
chain: MGSWYEFDIRLEAIKYRLSALGGSEAELAAFEKEIAAFESELQAYKGKGNPEVEYLRKKAAVIRSMLQAYRHN
B18: HER2-binding D domain SEQ ID NO: 837 (designed binder)
chain: B17 chain with Y5W, D8N, I9V, E12Q, Y55D, K59T, V62H, S65W, M66Q
B19: HER2-binding D domain SEQ ID NO: 836 (designed binder)
chain: B17 chain with Y5W, D8R, K15W, S19H, Y55D, K58I, K59F, V62N, M66K
B20: HER2-binding D domain SEQ ID NO: 813 (designed binder)
chain: MGSWLVFKDELAGIKNYLEALGGSEAELATFEQDIAWFEQWLQNYKGKGNPEVEALRKEAAAIRDELQAYRHN
B21: HER2-binding D domain SEQ ID NO: 819 (designed binder)
chain: MGSWFEFNIRLHAIEYRLKALGGSEAELAAFEKEIAAFESELQAYKGKGNPEVEELRNYAASIRKLLQAYRHN
B22: HER2-binding D domain SEQ ID NO: 833 (designed binder)
chain: B21 chain with F5W, E15D, E55L, N58E, Y59K, S62Q, K65A, L66Q
notes: also called eb09
B23: HER2-binding D domain SEQ ID NO: 820 (designed binder)
chain: B21 chain with N8E, H12R, K19S, E55K, N58E, Y59L, S62E, K65Y, L66A
B24: HER2-binding D domain SEQ ID NO: 821 (designed binder)
chain: B21 chain with N8K, H12Y, E15Q, K19S, Y59L, S62E, K65H, L66S
B25: HER2-binding D domain SEQ ID NO: 834 (designed binder)
chain: B17 chain with Y5W, D8R, I9V, K15D, S19K, K58M, V62T, S65A, M66I
notes: also called eb06
B26: HER2-binding D domain SEQ ID NO: 811 (designed binder)
chain: MGSWWGFKVNLAWIKWKLEALGGSEAELAYFELWIANFEHSLQEYKGKGNPEVEALRKEAAAIRDELQAYRHN
B27: HER2-binding D domain SEQ ID NO: 828 (designed binder)
chain: MGSWWEFHVRLRAIEYRLEALGGSEAELAAFEKEIAAFESELQAYKGKGNPEVEQLRLIAANIRHLLQAYRHN
B28: HER2-binding D domain SEQ ID NO: 831 (designed binder)
chain: B27 chain with H8Q, R12A, E19K, Q55N, L58Q, I59L, N62H, H65S, L66V
B29: HER2-binding D domain SEQ ID NO: 840 (designed binder)
chain: B27 chain with V9I, E15K, E19Y, Q55D, L58I, I59L, N62E, H65A, L66Q
B30: HER2-binding D domain SEQ ID NO: 829 (designed binder)
chain: B27 chain with R12K, E19L, Q55D, L58Y, H65Q
B31: HER2-binding D domain SEQ ID NO: 832 (designed binder)
chain: B27 chain with H8Q, R12S, E19T, Q55E, L58Q, I59K, N62R, H65S
B32: HER2-binding D domain SEQ ID NO: 823 (designed binder)
chain: MGSWSEFWFRLHAILYRLQALGGSEAELAAFEKEIAAFESELQAYKGKGNPEVETLRDAAAEIRVALQAYRHN
B33: HER2-binding D domain SEQ ID NO: 814 (designed binder)
chain: MGSWKTFKIELAGIKLELEALGGSEAELAGFENAIAQFESSLQYYKGKGNPEVEALRKEAAAIRDELQAYRHN
notes: also called eb04
B34: HER2-binding D domain SEQ ID NO: 825 (designed binder)
chain: MGSWVEFWIRLNAIKYRLLALGGSEAELAAFEKEIAAFESELQAYKGKGNPEVEKLRQDAADIRELLQAYRHN
B35: HER2-binding D domain SEQ ID NO: 827 (designed binder)
chain: B34 chain with V5W, W8Y, I9L, N12R, K15S, L19Q, K55G, D62E, E65K
B36: HER2-binding D domain SEQ ID NO: 826 (designed binder)
chain: B34 chain with V5T, I9W, N12S, K15V, L19N, K55E, Q58D, D59M, E65S
B37: HER2-binding D domain SEQ ID NO: 812 (designed binder)
chain: MGSWVNFKTHLARIKVHLEALGGSEAELALFEHDIANFEQVLQQYKGKGNPEVEALRKEAAAIRDELQAYRHN
B38: HER2-binding D domain SEQ ID NO: 810 (designed binder)
chain: MGSWHEFLRRLLAIEMRLYALGGSEAELAAFEKEIAAFESELQAYKGKGNPEVEHLRVRAASIRQMLQAYRHN
notes: also called eb05
B39: HER2-binding D domain SEQ ID NO: 809 (designed binder)
chain: MGSWYEFRWRLHAIWLRLGALGGSEAELAAFEKEIAAFESELQAYKGKGNPEVEWLRQDAAQIRYILQAYRHN
notes: also called eb08
B40: HER2-binding D domain SEQ ID NO: 815 (designed binder)
chain: MGSWWEFKVRLSAIQYRLYALGGSEAELAAFEKEIAAFESELQAYKGKGNPEVEALREQAALIRTILQAYRHN
B41: HER2-binding D domain SEQ ID NO: 822 (designed binder)
chain: B27 chain with H8K, E19S, Q55E, L58V, I59L, N62S, H65I, L66H
B42: HER2-binding D domain SEQ ID NO: 818 (designed binder)
chain: B40 chain with V9I, S12Y, Q15E, Y19N, E58A, Q59K, L62Q, T65Y, I66N
B43: HER2-binding D domain SEQ ID NO: 816 (designed binder)
chain: B40 chain with K8H, V9I, S12H, Q15N, Y19A, Q59L, L62K, T65G, I66D
B44: HER2-binding D domain SEQ ID NO: 824 (designed binder)
chain: B32 chain with S5I, F9V, H12N, Q19Y, T55A, A59S, V65R, A66W
B45: HER2-binding D domain SEQ ID NO: 839 (designed binder)
chain: B34 chain with V5W, W8N, I9M, N12S, L19Y, K55I, Q58R, D59L, L66R
notes: also called eb10
B46: HER2-binding D domain SEQ ID NO: 838 (designed binder)
chain: B40 chain with K8N, Q15R, Y19L, A55D, E58A, Q59S, L62Q, T65A, I66M
B47: HER2-binding D domain SEQ ID NO: 817 (designed binder)
chain: B27 chain with H8Q, E15Q, E19N, Q55Y, L58G, I59L, N62Q, H65F, L66D

The target in one assay is T1, CD123. As to the kind of experiment: ELISA, format not described. Further details: unit not given here. (In general: An ELISA detects its analyte on a solid surface through an enzyme-linked reagent.)
Regarding B1, the ELISA_avg worked out at 4.9.

In turn, B2 registered an ELISA_avg of 3.8.

In the case of B3, the ELISA_avg is 3.2.

As to B4, the ELISA_avg was found to be 3.4.

Molecule B5 displayed an ELISA_avg of 6.

The target of the next assay is T2, CD123. As to the kind of experiment: ELISA, format not described. The arrangement: unit not given here.
For B6, the ELISA_avg turned out to be 15.3.

Molecule B7 yielded an ELISA_avg of 3.5.

In the case of B8, the ELISA_avg turned out to be 7.1.

For the molecule B9, the ELISA_avg worked out at 4.7.

On to B10, for which the ELISA_avg turned out to be 10.6.

B11 had an ELISA_avg of 10.6.

Take B12: the ELISA_avg stood at 3.9.

On to B13, for which the ELISA_avg was 9.

B14: the ELISA_avg was found to be 5.3.

In the case of B15, the ELISA_avg was determined as 3.9.

Regarding B16, the ELISA_avg worked out at 4.8.

The target of a further assay is T3, HER2 (human, UniProt P04626 23-652).
T3 construct: The ELISA is not described; also called ERBB2; CD340
In words: ELISA, format not described. Further details: unit not given here.
Molecule B17 showed an ELISA_avg of 5.35.

Molecule B18 came in with an ELISA_avg of 5.23.

In the case of B19, the ELISA_avg amounted to 8.04.

B20 came in with an ELISA_avg of 3.28.

Molecule B21 registered an ELISA_avg of 7.86.

For B22, the ELISA_avg was determined as 9.75.

In turn, B23 gave an ELISA_avg of 7.75.

Consider B24, for which the ELISA_avg came to 13.1.

With B25, the ELISA_avg was 6.82.

B26: the ELISA_avg was determined as 8.69.

Turning to B27, the ELISA_avg worked out at 5.48.

B28 came in with an ELISA_avg of 6.33.

The molecule B29 came in with an ELISA_avg of 14.8.

Molecule B30 came in with an ELISA_avg of 4.56.

For B31, the ELISA_avg was determined as 9.61.

Take B32: the ELISA_avg came to 14.8.

The molecule B33 returned an ELISA_avg of 4.95.

With B34, the ELISA_avg came to 10.6.

The molecule B35 returned an ELISA_avg of 5.1.

Regarding B36, the ELISA_avg is 5.76.

In the case of B37, the ELISA_avg is 7.91.

B38: the ELISA_avg amounted to 8.15.

For the molecule B39, the ELISA_avg is 7.18.

In turn, B40 displayed an ELISA_avg of 5.17.

For B41, the ELISA_avg worked out at 10.1.

On to B42, for which the ELISA_avg turned out to be 4.49.

Molecule B43 gave an ELISA_avg of 11.9.

In the case of B44, the ELISA_avg was found to be 3.91.

Regarding B45, the ELISA_avg was 3.08.

B46 gave an ELISA_avg of 6.73.

Molecule B47 returned an ELISA_avg of 14.4.
